Laboratory results: publication PMC6270756

Target: Nucleoside 2'-deoxyribosyltransferase from Bacillus psychrosaccharolyticus CECT 4074 (Bacillus psychrosaccharolyticus)
Assay: SEC; pure BpNDT on Sepharose 12 10/300 GL column (GE Healthcare); native mass estimated

stoichiometry N: 6
Substance: Nucleoside 2'-deoxyribosyltransferase from Bacillus psychrosaccharolyticus CECT 4074 (enzyme)
